Assay results as given in the supplement of paper PMC10567573.

B1: P2RY14 (parent)
chain: KLLSVIVWMLMLLLAVPNIILTNQ

Variants of: B1
Experiment: protein stability index of a GFP-peptide fusion (GPS, HEK-293T) (PSI 1-6); higher = more stable
Conditions: c terminus: a fixed tail appended
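Note: lentivirally expressed fusions sorted by FACS into six bins by GFP to DsRed ratio, PSI derived from sequencing read proportions per bin multiplied by bin number.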

**Q.** With KLLSVIVWMLVLLLAVPNIILTNQ as the variant, how does the protein stability index read?
**A.** 3.42

**Q.** For KLLSVIVWMLPLLLAVPNIILTNQ, which protein stability index is on record?
**A.** 3.16

**Q.** For KLLSVIVWMLELLLAVPNIILTNQ, which protein stability index is on record?
**A.** 2.06

**Q.** With KLLSVIVWMLDLLLAVPNIILTNQ as the variant, how does the protein stability index read?
**A.** 4.89

**Q.** With KLLSVIVWMLFLLLAVPNIILTNQ as the variant, how does the protein stability index read?
**A.** 3.31

**Q.** For KLLSVIVWMLWLLLAVPNIILTNQ, which protein stability index is on record?
**A.** 2.89

**Q.** For KLLSVIVWMLYLLLAVPNIILTNQ, which protein stability index is on record?
**A.** 2.38

**Q.** Which protein stability index does the source give for KLHSVIVWMLMLLLAVPNIILTNQ here?
**A.** 1.3

**Q.** Which protein stability index does the source give for KLNSVIVWMLMLLLAVPNIILTNQ here?
**A.** 4.61

**Q.** Which protein stability index does the source give for KLKSVIVWMLMLLLAVPNIILTNQ here?
**A.** 3.61

**Q.** With KLWSVIVWMLMLLLAVPNIILTNQ as the variant, how does the protein stability index read?
**A.** 3.69

**Q.** With KLTSVIVWMLMLLLAVPNIILTNQ as the variant, how does the protein stability index read?
**A.** 2.93

**Q.** For KLESVIVWMLMLLLAVPNIILTNQ, which protein stability index is on record?
**A.** 2.78

**Q.** With KLMSVIVWMLMLLLAVPNIILTNQ as the variant, how does the protein stability index read?
**A.** 1.64

**Q.** With KLFSVIVWMLMLLLAVPNIILTNQ as the variant, how does the protein stability index read?
**A.** 3.42

**Q.** Which protein stability index does the source give for KLYSVIVWMLMLLLAVPNIILTNQ here?
**A.** 2.55

**Q.** Which protein stability index does the source give for KLISVIVWMLMLLLAVPNIILTNQ here?
**A.** 1.73

**Q.** Which protein stability index does the source give for KLSSVIVWMLMLLLAVPNIILTNQ here?
**A.** 2.35

**Q.** For KLASVIVWMLMLLLAVPNIILTNQ, which protein stability index is on record?
**A.** 2.27

**Q.** Which protein stability index does the source give for KLLSVIVWMLMLLLEVPNIILTNQ here?
**A.** 2.84

**Q.** For KLLSVIVWMLMLLLPVPNIILTNQ, which protein stability index is on record?
**A.** 2.35

**Q.** With KLLSVIVWMLMLLLNVPNIILTNQ as the variant, how does the protein stability index read?
**A.** 3.1

**Q.** For KLLSVIVWMLMLLLVVPNIILTNQ, which protein stability index is on record?
**A.** 2.77

**Q.** Which protein stability index does the source give for KLLSVIVWMLMLLLDVPNIILTNQ here?
**A.** 3.06

**Q.** For KLLSVIVWMLMLLLKVPNIILTNQ, which protein stability index is on record?
**A.** 3.74

**Q.** For KLLSVIVWMLMLLLQVPNIILTNQ, which protein stability index is on record?
**A.** 3.12

**Q.** With KLLSVIVWMLMLLLCVPNIILTNQ as the variant, how does the protein stability index read?
**A.** 3.31

**Q.** Which protein stability index does the source give for KLLSVIVWMLMLLLMVPNIILTNQ here?
**A.** 3.03

**Q.** With KLLSVIVWMLMLLLHVPNIILTNQ as the variant, how does the protein stability index read?
**A.** 3.28

**Q.** With KLLSVIVWMLMLLLLVPNIILTNQ as the variant, how does the protein stability index read?
**A.** 2.56

**Q.** Which protein stability index does the source give for KLLSVIVWMLMLLLWVPNIILTNQ here?
**A.** 2.2

**Q.** With KLLSVIVWMLMLILAVPNIILTNQ as the variant, how does the protein stability index read?
**A.** 1.81

**Q.** For KLLSVIVWMLMLYLAVPNIILTNQ, which protein stability index is on record?
**A.** 3.48

**Q.** Which protein stability index does the source give for KLLSVIVWMLMLALAVPNIILTNQ here?
**A.** 2.98

**Q.** For KLLSVIVWMLMLPLAVPNIILTNQ, which protein stability index is on record?
**A.** 3.47

**Q.** Which protein stability index does the source give for KLLSVIVWMLMLNLAVPNIILTNQ here?
**A.** 3.02

**Q.** With KLLSVIVWMLMLDLAVPNIILTNQ as the variant, how does the protein stability index read?
**A.** 3.11

**Q.** With KLLSVIVWMLMLKLAVPNIILTNQ as the variant, how does the protein stability index read?
**A.** 1.78

**Q.** With KLLSVIVWMLMLVLAVPNIILTNQ as the variant, how does the protein stability index read?
**A.** 1.84

**Q.** For KLLSVIVWMLMLRLAVPNIILTNQ, which protein stability index is on record?
**A.** 2.15

**Q.** With KLLSVIVWMLMLHLAVPNIILTNQ as the variant, how does the protein stability index read?
**A.** 4.28

**Q.** With KLLSVIVWMLMLTLAVPNIILTNQ as the variant, how does the protein stability index read?
**A.** 2.38

**Q.** With KLLSVIVWMLMLFLAVPNIILTNQ as the variant, how does the protein stability index read?
**A.** 3.72

**Q.** For KLLSVIVWMLMLGLAVPNIILTNQ, which protein stability index is on record?
**A.** 2.79

**Q.** With KLLSVIVWMLMLSLAVPNIILTNQ as the variant, how does the protein stability index read?
**A.** 3.29

**Q.** With KLLSVIVEMLMLLLAVPNIILTNQ as the variant, how does the protein stability index read?
**A.** 3.97

**Q.** With KLLSVIVYMLMLLLAVPNIILTNQ as the variant, how does the protein stability index read?
**A.** 2.21

**Q.** Which protein stability index does the source give for KLLSVIVKMLMLLLAVPNIILTNQ here?
**A.** 3.73

**Q.** Which protein stability index does the source give for KLLSVIVGMLMLLLAVPNIILTNQ here?
**A.** 2.81

**Q.** For KLLSVIVNMLMLLLAVPNIILTNQ, which protein stability index is on record?
**A.** 2.41

**Q.** With KLLSVIVRMLMLLLAVPNIILTNQ as the variant, how does the protein stability index read?
**A.** 2.67

**Q.** For KLLSVIVFMLMLLLAVPNIILTNQ, which protein stability index is on record?
**A.** 2.3

**Q.** For KLLSVIVVMLMLLLAVPNIILTNQ, which protein stability index is on record?
**A.** 2.86

**Q.** Which protein stability index does the source give for KLLSVIVLMLMLLLAVPNIILTNQ here?
**A.** 1.76

**Q.** Which protein stability index does the source give for KLLSVIVCMLMLLLAVPNIILTNQ here?
**A.** 1.95

**Q.** For KLLSVIVMMLMLLLAVPNIILTNQ, which protein stability index is on record?
**A.** 3.83

**Q.** For KLLSVIVQMLMLLLAVPNIILTNQ, which protein stability index is on record?
**A.** 1.99

**Q.** For KLLSVIVTMLMLLLAVPNIILTNQ, which protein stability index is on record?
**A.** 3.35

**Q.** Which protein stability index does the source give for KLLSVIVIMLMLLLAVPNIILTNQ here?
**A.** 3.03

**Q.** With KLLSVIVHMLMLLLAVPNIILTNQ as the variant, how does the protein stability index read?
**A.** 2.85

**Q.** With KLLSVIVPMLMLLLAVPNIILTNQ as the variant, how does the protein stability index read?
**A.** 1.85

**Q.** Which protein stability index does the source give for KLLSVIVWMLMLLMAVPNIILTNQ here?
**A.** 3.33

**Q.** With KLLSVIVWMLMLLWAVPNIILTNQ as the variant, how does the protein stability index read?
**A.** 2.51

**Q.** With KLLSVIVWMLMLLDAVPNIILTNQ as the variant, how does the protein stability index read?
**A.** 3.07

**Q.** Which protein stability index does the source give for KLLSVIVWMLMLLAAVPNIILTNQ here?
**A.** 2.24

**Q.** Which protein stability index does the source give for KLLSVIVWMLMLLSAVPNIILTNQ here?
**A.** 3.42

**Q.** Which protein stability index does the source give for KLLSVIVWMLMLLGAVPNIILTNQ here?
**A.** 2.27

**Q.** For KLLSVIVWMLMLLKAVPNIILTNQ, which protein stability index is on record?
**A.** 2.95

**Q.** For KLLSVIVWMLMLLEAVPNIILTNQ, which protein stability index is on record?
**A.** 3.48

**Q.** With KLLSVIVWMLMLLIAVPNIILTNQ as the variant, how does the protein stability index read?
**A.** 2.49

**Q.** For KLLSVIVWMLMLLTAVPNIILTNQ, which protein stability index is on record?
**A.** 3.16

**Q.** Which protein stability index does the source give for KLLSVIVWMLMLLCAVPNIILTNQ here?
**A.** 2.41

**Q.** With KLLSVIVWMLMLLVAVPNIILTNQ as the variant, how does the protein stability index read?
**A.** 1.32

**Q.** With KLLSVIVWMLMLLNAVPNIILTNQ as the variant, how does the protein stability index read?
**A.** 2.75

**Q.** Which protein stability index does the source give for KLLSVIVWMLMLLHAVPNIILTNQ here?
**A.** 2.92

**Q.** With KLLSVIVWMLMLLPAVPNIILTNQ as the variant, how does the protein stability index read?
**A.** 4.16

**Q.** For KLLSKIVWMLMLLLAVPNIILTNQ, which protein stability index is on record?
**A.** 2.52

**Q.** With KLLSWIVWMLMLLLAVPNIILTNQ as the variant, how does the protein stability index read?
**A.** 2.74

**Q.** For KLLSMIVWMLMLLLAVPNIILTNQ, which protein stability index is on record?
**A.** 1.71

**Q.** For KLLSNIVWMLMLLLAVPNIILTNQ, which protein stability index is on record?
**A.** 2.29

**Q.** Which protein stability index does the source give for KLLSIIVWMLMLLLAVPNIILTNQ here?
**A.** 3.93

**Q.** With KLLSPIVWMLMLLLAVPNIILTNQ as the variant, how does the protein stability index read?
**A.** 2.54

**Q.** With KLLSHIVWMLMLLLAVPNIILTNQ as the variant, how does the protein stability index read?
**A.** 3.85

**Q.** With KLLSDIVWMLMLLLAVPNIILTNQ as the variant, how does the protein stability index read?
**A.** 3.22

**Q.** For KLLSLIVWMLMLLLAVPNIILTNQ, which protein stability index is on record?
**A.** 2.11

**Q.** Which protein stability index does the source give for KLLSEIVWMLMLLLAVPNIILTNQ here?
**A.** 2.42

**Q.** With KLLSSIVWMLMLLLAVPNIILTNQ as the variant, how does the protein stability index read?
**A.** 3.98

**Q.** With KLLSQIVWMLMLLLAVPNIILTNQ as the variant, how does the protein stability index read?
**A.** 2.35

**Q.** For KLLSYIVWMLMLLLAVPNIILTNQ, which protein stability index is on record?
**A.** 2.63

**Q.** With KLLSTIVWMLMLLLAVPNIILTNQ as the variant, how does the protein stability index read?
**A.** 3.51

**Q.** With KLLSFIVWMLMLLLAVPNIILTNQ as the variant, how does the protein stability index read?
**A.** 2.09

**Q.** Which protein stability index does the source give for KLLSRIVWMLMLLLAVPNIILTNQ here?
**A.** 2.79

**Q.** Which protein stability index does the source give for KLLSGIVWMLMLLLAVPNIILTNQ here?
**A.** 4.02

**Q.** With KLLSAIVWMLMLLLAVPNIILTNQ as the variant, how does the protein stability index read?
**A.** 3.26
